Positions count from the first letter of the chain named. Names may count otherwise.
B1: TPP-66143 (Fc fusion)
chain 1: DVQLVESGGGVVQAGGSLSISCAASGGSLSNYVLGWFRQAPGKEREFVAAINWRGDITIGPPNVEGRFTISRDNAKNTGYLQMNSLAPDDTALYYCGAGTPLNPGAYIYDWSYDYWGRGTLVTVSSDKTHTCPPCPAPEAAGGPSVFLFPPKPKDTLMISRTPEVTCVVVDVSQEDPEVQFNWYVDGVEVHNAKTKPREEQFNSTYRVVSVLTVLHQDWLNGKEYKCKVSNKGLPSSIEKTISKAKGQPREPQVYTLPPCQEEMTKNQVSLWCLVKGFYPSDIAVEWESNGQPENNYKTTPPVLDSDGSFFLYSKLTVDKSRWQEGNVFSCSVMHEALHNHYTQKSLSLSLGGGGGSGGGGSGGGGSGGGGSGGGGSGGGGSGGGGSEVQLVESGGGVVQAGGSLSISCAASGGSLSNYVLGWFRQAPGKEREFVAAINWRGDITIGPPNVEGRFTISRDNAKNTGYLQMNSLAPDDTALYYCGAGTPLNPGAYIYDWSYDYWGRGTLVTVSSA
chain 2: DVQLVESGGGVVQAGGSLSISCAASGGSLSNYVLGWFRQAPGKEREFVAAINWRGDITIGPPNVEGRFTISRDNAKNTGYLQMNSLAPDDTALYYCGAGTPLNPGAYIYDWSYDYWGRGTLVTVSSDKTHTCPPCPAPEAAGGPSVFLFPPKPKDTLMISRTPEVTCVVVDVSQEDPEVQFNWYVDGVEVHNAKTKPREEQFNSTYRVVSVLTVLHQDWLNGKEYKCKVSNKGLPSSIEKTISKAKGQPREPQVCTLPPSQEEMTKNQVSLSCAVKGFYPSDIAVEWESNGQPENNYKTTPPVLDSDGSFFLVSKLTVDKSRWQEGNVFSCSVMHEALHNRFTQKSLSLSLG
notes: IgG4 FALA Fc knob-in-hole (hole chain H435R, Y436F) with three irrelevant ISVDs; control; also called control ISVD-Fc polypeptide
B2: TPP-66175 (Fc fusion)
chain 1: B1 chain 1 with M158Y, S160T, T162E
chain 2: B1 chain 2 with M158Y, S160T, T162E
notes: IgG4 FALA Fc (YTE) knob-in-hole with three irrelevant ISVDs; control; also called control ISVD-Fc(YTE) polypeptide
B3: TPP-66176 (Fc fusion)
chain: B1 chain 1 with P134S, C260S, W272T
notes: Symmetrical IgG4 FALA Fc fusion without knob-in-hole mutations, four irrelevant ISVDs; control; also called symmetrical ISVD-Fc polypeptide

What was measured:
[1] = molecular target: T1, Human FcRn (biotinylated human FcRn) (human, UniProt P61769 21-119); test: SPR Biacore 8K+, biotinylated hFcRn on SA chip (~500-600 RU), pH 6.0, bivalent analyte fit (kd1)
T1 construct: Biotinylated human FcRn captured on a Series S Sensor Chip SA; also called human neonatal Fc receptor; hFcRn

[2] = molecular target: T1, Human FcRn (biotinylated human FcRn); test: SPR Biacore 8K+, biotinylated hFcRn on SA chip (~500-600 RU), pH 6.0, bivalent analyte fit (ka1)
[3] = molecular target: T1, Human FcRn (biotinylated human FcRn); test: SPR Biacore 8K+, biotinylated hFcRn on SA chip (~500-600 RU), pH 6.0, bivalent analyte fit;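 note: analytes were Fc proteins binding to biotinylated human FcRn captured on a Series S streptavidin sensor chip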
Text: The Fc proteins were characterized by affinity determination for human FcRn at pH 6.0 on the Biacore 8K+ instrument. For affinity measurements, ˜500-600 RU of biotinylated human FcRn was captured on a Series S Sensor Chip SA. […] Evaluation of the sensorgrams was based on the Bivalent Analyte fit.

[4] = molecular target: T1, Human FcRn (biotinylated human FcRn); test: SPR Biacore 8K+, biotinylated hFcRn on SA chip (~500-600 RU), pH 6.0, bivalent analyte fit (KD1)

Row | Binder | koff [1] [s⁻¹] | kon [2] [M⁻¹ s⁻¹] | KD2 [3] [M] | ka2 [3] | kd2 [3] [s⁻¹] | Kd [4] [nM]
1 | B1 | 0.0779 | 82800 | 4.24 | 3.22e-05 1/RUs | 0.000136 | 941
2 | B2 | 0.0167 | 93300 | 3.98 | 0.0232 1/RUs | 0.0922 | 179
3 | B3 | 0.0794 | 62900 | 4.53 | 3.79e-05 1/RUs | 0.000172 | 1260
